These results are taken from article doi:10.1101/2021.01.18.427223.

For the assay, the target named is VPS35 D620N (VPS35 D620N knock-in mouse, VKI) (mouse (endogenous in brain)), Q9EQH3. Description: co-IP. Particulars: remark: other sources report otherwise.

B1: WASH complex member FAM21, Q6PGL7 1-1334 (natural protein)
chain: MNRTSPDSERPPASEPVWERPWSVEEIRRSSQNWSLAADAGLLQFLQEFSQQTISRTHEIKKQVDGLIQETKATHCRLHNVFNDFLMLSNTQFIENRVYDEEVEEQVLKAEAEKAEQEKTREQKEIDLIPKVQEAVNYGLQVLDSAFEQLDIKAGNSDSEEDDANERVDLILEPKDLYIDRPLPYLIGSKLFMEQEDVGLGELSSEEGSVGSDRGSIVDSEDEKEEEESDEDFASHSDNDQNQHTTQISDEEEDDDGDLFADSEKEGDDIEDIEESAKSKRPTSFADELAARIKGDISNQRKEGQTDGKPQKTVKEKKERRTPADDEEDILFPPPTLTDEDFSPFGSRGGLFSNGQGLFDDEDESDLFKEAPRARPAQAPVSEELPPSPKPGKKIPAGAVSVLLGHPDVSGSTSAPSLKELQKHGQPTPGKSSHLPTPAGLFDDDDNDNDEDDNNFFMPSSSKPSKTDKVKSTAIIFDDDEGDLFKEKAEALPAASVSQTHESKTRADKTIALPSSKNLKLVSETKTQKGLFSDEEDSEDLFSSQSSSKPKSASLPSSQPPTSVSLFGDEDEEDSLFGSAAAKKQTSSLQPQSQEKAKPSEQPSKKTSALLFSSDEEDQWNIADSHTKLASDNKSKGELWDSGATQGQEAKAVKKTNLFEDDDDDEVDLFAIAKDSQKKTQRTSLLFEDDAESGSSLFGLPPTSVPSATTKKESVPKVPLLFSDEEDSEVPSGVKPEDLKVDNARVSPEVGSADVASIAQKEGLLPASDQEAGGPSDIFSSSSPLDKGAKGRTRTVLSLFDEDEDKVEDESSTCAPQDGREKGLKTDSRPKSTGVFQDEELLFSHKLQKDNDPDVDLFAGTKKIRSSVPSGGSLFGDDEDDDLFSSAKTQPVVPEKKGTLKKDHPVSLKNQDPLDSTQGSKEKSTWKTEPAQDSSGLTPFKSREPSSRIGKIQANLAINPAALLPTVALQIPGTKPVSSELAFPSSEPGRSHILESVPTLPGSVEAGVSFDLPAQADTLHSANKSRVKVRGKRRPQTRAARRLAAQESSEAEDVTVDRGPVAQLSSSPVLPNGHQPLLQPRMASGQTSSETATAPPWEGGPVLSAADRSFFVKSRPQTGNEADLFDSGDIFPKSRGSQSVEGAGVMAGEPPSHSSGGRKEKSLAFPDLSEGSSTEDLFQSVKPRAAKNRNPFPLLEDEEDLFADPRGKKNERKPDSHQDSVSKTHDIFEDDIFATEAIKPFPKKREKGRTLEPNLFDDNIDIFADLTVKPKEKSKKKVAAKSMFDDDTDDIFSSGLQAKASKPKSQSAEAASEQRSEHKVASIFDDPLNAFGSQ
In turn, B1 gave a percent reduction of co-IP against wild type of 25 to 30%.
